From PMC10531723

What was measured:
[1] = biological target: Aβ42-CFP (human Aβ(1-42) fused to CFP) (human) (UniProt P05067); experiment: FRET or BRET; acceptor photobleaching FRET (AB FRET) by confocal microscopy (Leica TCS SP5) of yeast cells co-expressing a CFP fusion (donor) and a YFP fusion (acceptor); acceptor bleached at 514 nm, 100% intensity; cells washed, air-dried on polylysine slides and mounted in …; three independent transformants, at least 100 cells each
[2] = biological target: IAPP-CFP (human IAPP fused in frame with cyan fluorescent protein) (human); experiment: as above
Sequence of IAPP-CFP (human IAPP fused in frame with cyan fluorescent protein) (human) (P10997 8-37): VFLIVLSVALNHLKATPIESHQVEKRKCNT

“IAPP-YFP (human IAPP fused in frame with yellow fluorescent protein) (domain or fragment)” was tested, and the FRET efficiency [1] was 20% and the FRET efficiency [2] was 31%.
